Experimental data as given in patent US8691944.

How the values were obtained:
[1] = target: platelet-derived growth factor-BB (PDGF-BB) (UniProt P01127); experiment: equilibrium binding
[2] = target: basic fibroblast growth factor (bFGF, FGF-2) (UniProt P09038); experiment: binding assay, method not restated
[3] = target: platelet-derived growth factor-BB (PDGF-BB) (UniProt P01127); experiment: binding assay, method not restated
[4] = target: transforming growth factor-β1 (TGF-β1) (UniProt P01137); experiment: binding assay, method not restated
[5] = target: vascular endothelial growth factor A (VEGF-A) (UniProt P15692); experiment: binding assay, method not restated
[6] = target: basic fibroblast growth factor (bFGF, FGF-2) (UniProt P09038); experiment: equilibrium or kinetic binding, not said which
[7] = target: transforming growth factor-β1 (TGF-β1) (UniProt P01137); experiment: equilibrium or kinetic binding, not said which

basic fibroblast growth factor (bFGF, FGF-2), sequence (P09038 143-288 limits assumed): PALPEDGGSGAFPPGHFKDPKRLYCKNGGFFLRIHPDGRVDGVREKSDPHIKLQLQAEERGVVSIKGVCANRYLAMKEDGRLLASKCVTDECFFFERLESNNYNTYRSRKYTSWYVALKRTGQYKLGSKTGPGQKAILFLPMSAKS
transforming growth factor-β1 (TGF-β1), sequence (P01137 279-390 limits assumed): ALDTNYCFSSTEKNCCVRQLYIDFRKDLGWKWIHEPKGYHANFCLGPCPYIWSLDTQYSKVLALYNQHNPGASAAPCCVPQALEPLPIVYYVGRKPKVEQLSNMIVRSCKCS
platelet-derived growth factor-BB (PDGF-BB), sequence (P01127 82-190 limits assumed): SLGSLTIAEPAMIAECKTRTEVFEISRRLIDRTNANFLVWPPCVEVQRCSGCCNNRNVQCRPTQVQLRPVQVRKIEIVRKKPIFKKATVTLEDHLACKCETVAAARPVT
vascular endothelial growth factor A (VEGF-A), sequence (P15692 other isoform, or with tags, fused parts or gaps limits assumed): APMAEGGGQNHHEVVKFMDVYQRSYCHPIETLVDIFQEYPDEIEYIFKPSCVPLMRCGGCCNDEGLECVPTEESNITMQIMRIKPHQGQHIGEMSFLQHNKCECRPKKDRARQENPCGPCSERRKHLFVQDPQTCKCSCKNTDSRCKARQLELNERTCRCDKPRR

IIICS, variably-spliced domain of fibronectin (from UniProt P02751 2083-2202)
Kd [1]: 0.35 µM | Kd [2]: 0.1 µM | Kd [3]: 0.1 µM | Kd [4]: 0.1 µM | Kd [5]: 0.1 µM | Kd [6]: 0.058 µM | Kd [7]: 0.074 µM
